Series [1] relates to K562 cells. Put plainly: Effect of CD34 binding polypeptide on proliferation of K562 cells. Format: cell-based. The following applies: 2 μg/ml polypeptide, replenished every 48 hours, counted for 6 days, FIG. 9. As to the method: (1) Inoculate well-grown K562 cells in a 24-hole plate in cell concentration of 6000/ml/hole; set two experimental groups, wherein polypeptides 17 and 19 (polypeptide concentration is 2 μg/ml) are added into culture solutions respectively; set control groups, wherein polypeptide diluent in the same amount of polypeptide is added into the culture solution.
(2) Count once every 24 hours, replenish CD34 binding polypeptide (polypeptide concentration is 2 μg/ml) once every 48 hours, and the counting lasts for 6 days; repeat the experiment three times;
(3) draw cell growth curves, wherein the Y-axis is indicative of mean value of cell density each day, the X-axis is indicative of incubation time.

Series [2] concerns ductal epithelial cells and vascular endothelial cells of salivary gland. Nature of the series: Immunofluorescence binding to salivary gland tissue sections. Format: cell-based, human. The following applies: 2 μg/mL polypeptide, 1 hour, room temperature, 6 μm frozen sections, FIG. 6a. The method, then:
In the example, immunofluorescence is used to test the binding between polypeptide and ductal epithelial cells and vascular endothelial cells of salivary gland.
Embed the human salivary gland tissues with OCT, and slice them in a thickness of 6 μm at −20° C., fix with acetone for 15 minutes, use PBS to wash them for three times, 5 minutes each time. Incubate them with 2 μg/mL CD34 binding polypeptide (polypeptide 17) at room temperature for 1 hour, use PBS to wash for three times, 10 minutes each time. Drop 20 μL anti-fluorescence quenching agent for mounting, and preserve them being protected from light at 4° C., fluorescence microscope is used to observe and photograph.

Series [3] has as its target T1, CD34 molecules of K562 leukemia cells (Homo sapiens, UniProt P28906).
T1 construct: endogenous in cells; host or cells: K562
T1 sequence (P28906 32-385): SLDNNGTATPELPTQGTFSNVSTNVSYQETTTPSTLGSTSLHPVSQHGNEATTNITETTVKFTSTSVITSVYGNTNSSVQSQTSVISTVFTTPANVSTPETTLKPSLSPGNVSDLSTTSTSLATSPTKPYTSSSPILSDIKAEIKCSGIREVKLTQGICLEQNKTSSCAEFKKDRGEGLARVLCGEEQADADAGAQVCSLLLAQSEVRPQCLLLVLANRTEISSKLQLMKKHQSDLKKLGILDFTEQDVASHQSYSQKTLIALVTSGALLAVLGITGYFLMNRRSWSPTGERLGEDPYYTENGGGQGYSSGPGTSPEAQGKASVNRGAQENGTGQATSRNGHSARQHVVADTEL
Put plainly: Co-immunoprecipitation of CD34 binding polypeptide, fluorescence intensity by fluorospectrophotometer. The following applies: 2b; for binding of polypeptide to protein co-immunoprecipitated with CD34 antibodies (fluorescence intensity): K562 total protein, CD34 antibody co-immunoprecipitation, NanoDrop 3300, FIGS. 2a. The method, then: (1) extracting total protein: wash K562 cell once with pre-cooled PBS buffer solution, remove the PBS, add 500 μL non-denatured protein lysate containing protease inhibitor into the culture dish, collect cells into a 1.5 mL centrifuge tube, perform ultra sonication for 4 times, 4 seconds each time, leave them on the ice for 30 minutes, and centrifuge them at 8000 rpm at 4° C. for 20 minutes, transfer the supernatant into a new centrifuge tube to obtain total protein products;
(2) pretreatment of cellular total protein: add 50 μL confining liquid of normal goat serum into the cellular total protein products, and incubate them on the ice for 1 hour, then add 100 μL G-protein microsphere suspension (Calbiochem), incubate them at 4° C. for 20 minutes, centrifuge and remove the G-protein microsphere.
(3) Co- immunoprecipitation: add CD34 antibodies (AR) into the total protein pretreated in step (2), take it as experimental groups, set control groups, wherein equal amount of PBS antibody diluent is added, and incubate them at 4° C. for 8 hours;
(4) Binding of polypeptides and purification of G-protein antibodies: add polypeptides 17 and 19 into respective experimental groups and control group respectively, meanwhile add G-protein microsphere suspension, and incubate them at 4° C. for 4 hours;
(5) Washing and elution: centrifuge at 4° C. to remove the supernatant, use washing liquor to wash for three times, centrifuge and remove the supernatant, add 2× SDS buffer solution in a volume the same as that of G-protein microsphere, treat them at 50° C. for 10 minutes, centrifuge and remove the microspheres, transfer the supernatant into a new EP tube, and add DTT (dithiothreitol) until the final concentration is 100 mM;
(6) Testing fluorescence intensities of experimental groups and control groups using micro fluorospectro photometer (NanoDrop 3300).

For a further series, the system named is MNNG/HOS cells. Nature of the series: Binding between CD34 binding polypeptide and human osteosarcoma cell line MNNG/HOS. In kind it is cell-based. The settings on record: 2 μg/ml, 37° C., 2 hours, CD34 negative cell line, fluorescence microscope. As to the method:
Add 2 μg/ml polypeptides 17 and 19 into two culture dishes of well-grown MNNG/HOS cells (density of 80%) respectively, incubate them in an incubator at 37° C. for 2 hours, remove the culture solution, use 1 ml PBS to wash them for 3 times, add 5 ml culture solution, and use a fluorescence microscope to observe the binding between polypeptide and MNNG/HOS cells.

Series [4] concerns CD34 negative cells (peripheral blood cells). Put plainly: Magnetic separation, binding to CD34 negative blood cells. In kind it is cell-based. The following applies: other blood cells. The method, then: Mix polypeptides 17 and 19 adhering to the surfaces of nano-magnetic beads respectively with K562 cells and peripheral blood cells, and incubate them for 1 hour. Use magnetic sorter to sort, and the sorting efficiency of K562 cells is higher than 95%. […] A schematic diagram of the example is shown in FIG. 5, and the specific operation for magnetic separation of the example can be performed according to conventional magnetic techniques in the art.

The target in series [5] is T2, CD34 molecules in K562 leukemia cells (Homo sapiens, UniProt P28906).
T2 construct: endogenous in cells; host or cells: K562
T2 sequence (P28906 32-385): T1 sequence (P28906 32-385)
Put plainly: Immunofluorescence co-localisation of CD34 binding polypeptide and CD34 antibodies. The following applies: fixed K562 cells, confocal microscope, FIGS. 3a, 3b. As to the method: (1) Preparation of cells: incubate K562 cell suspension in an incubator (37° C., 5% CO2). When the cell density reaches 80%, centrifuge and remove the culture solution, wash it once using PBS buffer solution, centrifuge it, take the cell suspension and drop it onto a glass slide coated with polylysine, and use cold acetone to fix for 10 minutes after drying.
(2) Use PBS buffer solution to wash for three times, 5 minutes each time, and then use 5% BSA confining liquid to seal it at room temperature for 1 hour.
(3) Incubation of primary antibodies: drop the primary antibody diluent of CD34 antibodies (AR) onto a slide, incubate it at 4° C. over night. Use PBS buffer solution to wash it for three times, 5 minutes each time.
(4) Incubation of second antibodies and binding to polypeptide: add polypeptides 17 and 19 into diluted anti-rabbit antibodies labeled by Alexa Fluor 561 respectively, drop them onto cover glasses, incubate them at room temperature and keep shielded from light for 1 hour. Use PBS buffer solution to wash for three times, 5 minutes each time.
(5) Use 1 μg/mL DAPI to stain at room temperature and keep shielded from light for 5 minutes, use PBS buffer solution to wash it for three times, 5 minutes each time.
(6) After mounting with anti-fluorescence quenching agent, use laser scanning confocal microscope to observe and photograph.

Series [6] relates to K562 cells. Nature of the series: Effect of CD34 binding polypeptide on adhesion of CD34 positive cells. The following applies: 2 μg/mL polypeptide, 6 hours, plates of FN, Collagen I and Mareigel, versus control NC, FIG. 4. In kind it is cell-based. The method, then: Add the polypeptides 17 and 19 into incubating holes to set respective experimental groups (final concentration of polypeptide is 2 μg/mL).

As to “polypeptide 17: synthetic CD34 binding polypeptide displayed by phage 17, amino acid sequence SEQ ID NO: 1 (SSFASKKGYPFNRMCAS; Non-antibody binding protein capable of binding to CD34)”, in the series with K562 cells [1], the “proliferation rate of K562 leukemia cells versus control group” value is “no significant difference”. In addition, the “binding to ductal epithelial cells and vascular endothelial cells of salivary gland tissue” value in series [2] is “bind to ductal epithelial cells and vascular endothelial cells of salivary gland tissue”. The “binding of polypeptide to protein co-immunoprecipitated with CD34 antibodies (fluorescence intensity)” value in series [3] is reported as “can specifically bind”. Besides, in the series on MNNG/HOS cells, the “binding between fluorescent polypeptide and MNNG/HOS cells” value is “No binding”. Besides, the “binding to CD34 negative cells” value in series [4] is “won't bind to CD34 negative cells”. For the same substance, in series [5], the “binding to CD34 molecules (overlap of polypeptide green fluorescence and CD34 antibody red fluorescence)” value is listed as “have bound to CD34 molecules”. Also, the “adhesion of K562 cells (count of adherent cells)” value in the series on K562 cells [6] is given as “inhibit the adhesion of K562 cells significantly”.
For “polypeptide 19: synthetic CD34 binding polypeptide displayed by phage 19, amino acid sequence SEQ ID NO: 2 (SSLGWWGPRRDFPGRRERIYLGIPWLSLLGSGAPSPV; Non-antibody binding protein capable of binding CD34)”, the “proliferation rate of K562 leukemia cells versus control group” value with K562 cells [1] is reported as “no significant difference”. The “binding of polypeptide to protein co-immunoprecipitated with CD34 antibodies (fluorescence intensity)” value in series [3] was “can specifically bind”. Besides, the “binding specificity, comparison between polypeptides” value in series [3] (co-immunoprecipitation with CD34 antibodies, FIGS. 2a) was “better binding specificity than the polypeptide 17”. Further, the “binding between fluorescent polypeptide and MNNG/HOS cells” value with MNNG/HOS cells is given as “No binding”. In addition, the “binding to CD34 negative cells” value in series [4] is given as “won't bind to CD34 negative cells”. In series [5], the “binding to CD34 molecules (overlap of polypeptide green fluorescence and CD34 antibody red fluorescence)” value is “have bound to CD34 molecules”. In the series on K562 cells [6], the “adhesion of K562 cells (count of adherent cells)” value is listed as “inhibit the adhesion of K562 cells significantly, especially the culture solution containing the polypeptide 19”.

The values are drawn from patent publication US20180169177A1, “POLYPEPTIDE SPECIFICALLY BINDING TO CD34 MOLECULE AND USE THEREOF” (Guangzhou Yidai Pharmaceutical Co., Ltd., priority 2015, published 2018).
